According to US20250154494A1, “Microfluidic Co-Encapsulation Device and System and Methods for Identifying T-Cell Receptor Ligands” (JANSSEN BIOTECH, INC., priority 2021, published 2025):

Key:
Jurkat cells = test: Droplet co-culture of B and T cells, CD69 surface expression by flow cytometry; type: cell-based; conditions: 8 mM Ca^2+ in T cell suspension, 2 mM EDTA in B cell suspension
Procedure: One day prior to encapsulation, BOLETH cells were cultured in the presence of cognate or negative control peptides at a final concentration of 1 μM. Cells were collected the next day, centrifuged at 300 g for 5 min, then resuspended in B-cell medium at a final concentration of 1.4×10^7 cells/ml. These were further supplemented with same peptide and with or without EDTA. TCR-expressing Jurkat cells were centrifuged at 300 g and resuspended in B-cell medium at a concentration of 4×10^7 cells/ml. These were then further supplemented with respective concentrations of calcium. BOLETH, Jurkat, and detergent-containing fractions were connected to the microfluidic chip as described. Pressures were applied using an OB1 MK3+ and the droplet emulsion was collected into a 1.5 ml reaction tube containing oil.
Droplets were incubated at 37° C. in a 5% CO2 humidified incubator. Following overnight incubation, droplet emulsions were disrupted by adding two volumes of Pico-Break 1 (SPHERE FLUIDICS). Tubes were quickly inverted several times and centrifuged for 15 s at 300 rpm to facilitate separation of the cell-containing fraction. […] Tubes were centrifuged for 5 min at 300 g and cell pellets were subsequently resuspended in 100 μl of FACS buffer and were analyzed via flow cytometry. […]

Jurkat T cells = test: Bulk plate co-culture of TCR-expressing Jurkat T cells with B cells presenting cognate peptide, CD69 surface expression; type: cell-based; conditions: Ca^2+ in equimolar concentration to EDTA in the medium
CD19 on BOLETH cells [1] = biological target: T1, CD19 on BOLETH cells (UniProt P15391 20-556, limits assumed); test: flow cytometry; BOLETH cells stained with supernatant of HEK cells transfected with tandem (T2A) constructs, anti-HA antibody
T1 construct: whole, on cells; also called B cell-specific transmembrane protein CD19
T1 sequence (looked up): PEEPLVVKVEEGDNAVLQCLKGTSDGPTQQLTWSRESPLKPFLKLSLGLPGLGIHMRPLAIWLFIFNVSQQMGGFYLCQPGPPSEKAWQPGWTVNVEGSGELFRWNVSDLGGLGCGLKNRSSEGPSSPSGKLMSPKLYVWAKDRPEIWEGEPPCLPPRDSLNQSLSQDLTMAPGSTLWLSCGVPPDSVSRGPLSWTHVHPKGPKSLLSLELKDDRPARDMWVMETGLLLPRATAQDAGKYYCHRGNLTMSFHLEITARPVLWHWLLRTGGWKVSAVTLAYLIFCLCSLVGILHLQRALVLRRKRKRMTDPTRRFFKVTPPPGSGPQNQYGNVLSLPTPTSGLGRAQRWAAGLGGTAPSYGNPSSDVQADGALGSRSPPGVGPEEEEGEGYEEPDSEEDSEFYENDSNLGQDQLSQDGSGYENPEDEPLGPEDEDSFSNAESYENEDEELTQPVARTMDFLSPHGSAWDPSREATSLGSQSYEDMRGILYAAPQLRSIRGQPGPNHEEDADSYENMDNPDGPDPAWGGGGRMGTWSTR

CD19 on BOLETH cells [2] = biological target: T1, CD19 on BOLETH cells; test: flow cytometry; scFv secreted by Jurkat TT2 reporter cells in co-culture with BOLETH cells, 0.1 nM-10 µM cognate peptide
BOLETH cells = test: Co-culture of Jurkat TT2 scFv reporter cells with BOLETH cells in presence of cognate peptide, flow cytometry; type: cell-based; conditions: 0.1 nM-10 μM cognate peptide; versus V5-tagged αCD20-scFv
TCR signaling [3] = test: Co-culture of SKW-3 cells expressing sleeping beauty transposon reporters with peptide-loaded B cells (GFP / HA reporter); type: cell-based; conditions: 1 μM peptide
Procedure: (§1) Sleeping beauty transposon reporter constructs were transfected together with transposases into T cells, 5 to 1 ratio, using the Neon transfection system following the manufacturer's protocol. The voltages used for Jurkat cells were 1350V/[…]/3 pulse, and for SKW-3 cells 1500V, […] and 1 pulse were used as settings. 48-72 hours after transfection, the cells were selected using […] Blasticidin for Jurkat and […] Blasticidin for SKW-3 cells.
(§2) Co-culture experiments were performed using round-bottom 96-well plates. P10-NBV Jurkat and SKW-3 reporter cells and B cells were seeded at a 1:1 ratio into each well. For peptide co-culture experiments, either cognate peptide or mismatched peptide is added to each well and incubated for 16 hours. For minigene-based co-culture experiments, minigene-transduced B cells harboring either the cognate of mismatch minigenes were used. Next day the cells are spun down and stained for Flow cytometry.

TCR signaling [4] = test: Co-culture of Jurkat reporter cells carrying synthetic promoters with peptide-loaded B cells (GFP / HA reporter); type: cell-based
Procedure: as §1, §2

[Ca+2] [Ca^2+]
T cell activation measured by CD69 surface expression in droplets (Jurkat cells): rescues Ca^2+ dependent T cell activation | T cell activation measured by surface expression of CD69 (Jurkat T cells): fully restores T cell activation

B1: αCD19-scFv (clone B43), VH-VL, tagged with six HA epitope tags at its C-terminus (scFv)
scFv: EVQLVQSGAEVKKPGSSVKVSCKASGYAFSSYWMNWVRQAPGQGLEWMGQIWPGDSDTNYAQKFQGRVTITADESTSTAYMELSSLRSEDTAVYYCARRETTTVGRYYYAMDYWGQGTTVTVSSGGGGSGGGGSGGGGSDIQLTQSPSFLSASVGDRVTITCKASQSVDYSGDSYLNWYQQKPGKAPKLLIYDASNLVSGVPSRFSGSGSGTEFTLTISSLQPEDFATYYCQQSTENPWTFGGGTKLEIKGAGSYPYDVPDYAGAGSYPYDVPDYAGGSYPYDVPDYAGGAGSYPYDVPDYAGAGSYPYDVPDYAGAGSYPYDVPDYAG
notes: also called αCD19-HA; B43-HA
binding result (CD19 on BOLETH cells [1]): binds

B2: αCD19-scFv (clone B43), four-times V5-tagged (scFv)
scFv: EVQLVQSGAEVKKPGSSVKVSCKASGYAFSSYWMNWVRQAPGQGLEWMGQIWPGDSDTNYAQKFQGRVTITADESTSTAYMELSSLRSEDTAVYYCARRETTTVGRYYYAMDYWGQGTTVTVSSGGGGSGGGGSGGGGSDIQLTQSPSFLSASVGDRVTITCKASQSVDYSGDSYLNWYQQKPGKAPKLLIYDASNLVSGVPSRFSGSGSGTEFTLTISSLQPEDFATYYCQQSTENPWTFGGGTKLEIKGKPIPNPLLGLDSTGAGSGGKPIPNPLLGLDSTGAGSGGKPIPNPLLGLDSTGGAGSGGKPIPNPLLGLDSTGSGAGGSSL
notes: also called αCD19-scFv V5-tagged
fold reduction in MFI compared to V5-tagged αCD20-scFv (VLVH) (CD19 on BOLETH cells [2]): ~5 fold

B3: αCD19-scFv V5-tagged: αCD19 scFv (clone B43) with four-times V5 tag (protein)
scFv: EVQLVQSGAEVKKPGSSVKVSCKASGYAFSSYWMNWVRQAPGQGLEWMGQIWPGDSDTNYAQKFQGRVTITADESTSTAYMELSSLRSEDTAVYYCARRETTTVGRYYYAMDYWGQGTTVTVSSGGGGSGGGGSGGGGSDIQLTQSPSFLSASVGDRVTITCKASQSVDYSGDSYLNWYQQKPGKAPKLLIYDASNLVSGVPSRFSGSGSGTEFTLTISSLQPEDFATYYCQQSTENPWTFGGGTKLEIKGKPIPNPLLGLDSTGAGSGGKPIPNPLLGLDSTGAGSGGKPIPNPLLGLDSTGGAGSGGKPIPNPLLGLDSTGSGAGGSSL
reduction in MFI (BOLETH cells): about 5 fold

B4: NBV promoter: synthetic TCR responsive promoter, SEQ ID NO:50 (nucleic acid)
DNA: GAATTCAAGTACCGTGCAGGAGGAAAAACTGTTTCATACAGAAGGCGTGGGCTATGCAAATCGAAACGCTGGAAACACTGAGTAATCAGATCAAGTCATGTTTCCATTTGAATGCAAATGGATACAGAAGGCGTGGAGGAAAAACTGTTTCCTGTTCCAATAGACGCCCTTTTTGAATGCAAATGGCGAGCTCATGGGTTTCTCCACCAAGGTGACGAGTGGAAAATCTGACTCAGAATTATCCCTTGTTATGCAAATCGCCCAAAGAGGAAAATTTGTTTCATAGAACATACTGTCTCAAATAGACGCCTCCTCGAGCGTTTCCCGGGGTACC
HA and GFP fluorescence intensities with 2 copies of promoter instead of 1 (TCR signaling [3]): doubled | GFP and HA reporter gene expression in sleeping beauty constructs (TCR signaling [4]; sleeping beauty constructs): high GFP and HA reporter gene expression | GFP and HA median intensity compared to NFAT promoters (TCR signaling [4]; sleeping beauty transposon reporters in Jurkat cells, 1 μM peptide): best signal | intensity of HA and GFP signals compared to 4×NFAT (TCR signaling [4]; sleeping beauty transposon system, different concentrations of cognate peptide): higher intensity of both HA and GFP signals
